Data published in CN111748580A.
Values belong to the molecule of their own block, whether it stands above or below them.

Assays:
[1] = molecular target: CD33SP-OKT3scFv-CD28TC (鼠抗人CD3抗体 OKT3单链抗体, shown on CHO cells); experiment: flow cytometry, 40 nM Biotin-Protein L on CHO cells transfected with OKT3scFv, Streptavidin PE
[2] = molecular target: 全长的人CD226 (hCD226) on Jurkat cells (human) (UniProt Q15762); experiment: flow cytometry on Jurkat cells transfected with TIGIT and CD226
[3] = molecular target: T1, PVR (Poliovirus receptor) expressed on CHO-OKT3 cells (Homo sapiens (Human)) (UniProt P15151); experiment: flow cytometry, 40 nM TIGIT-Fc on CHO-OKT3 cells transfected with PVR, anti-human Fc-PE
T1 sequence: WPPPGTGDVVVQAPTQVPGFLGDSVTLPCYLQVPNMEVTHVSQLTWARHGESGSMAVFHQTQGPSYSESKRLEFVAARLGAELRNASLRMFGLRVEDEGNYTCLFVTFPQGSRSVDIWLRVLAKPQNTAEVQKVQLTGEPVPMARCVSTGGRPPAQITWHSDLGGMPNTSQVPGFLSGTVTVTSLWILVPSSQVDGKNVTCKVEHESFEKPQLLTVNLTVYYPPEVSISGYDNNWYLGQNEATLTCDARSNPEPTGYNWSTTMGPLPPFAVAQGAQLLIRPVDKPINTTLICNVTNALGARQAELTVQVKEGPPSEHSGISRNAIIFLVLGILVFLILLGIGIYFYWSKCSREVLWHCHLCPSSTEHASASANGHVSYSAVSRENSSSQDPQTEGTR

Sequence of UniProt Q15762 (Q15762 19-336 limits assumed): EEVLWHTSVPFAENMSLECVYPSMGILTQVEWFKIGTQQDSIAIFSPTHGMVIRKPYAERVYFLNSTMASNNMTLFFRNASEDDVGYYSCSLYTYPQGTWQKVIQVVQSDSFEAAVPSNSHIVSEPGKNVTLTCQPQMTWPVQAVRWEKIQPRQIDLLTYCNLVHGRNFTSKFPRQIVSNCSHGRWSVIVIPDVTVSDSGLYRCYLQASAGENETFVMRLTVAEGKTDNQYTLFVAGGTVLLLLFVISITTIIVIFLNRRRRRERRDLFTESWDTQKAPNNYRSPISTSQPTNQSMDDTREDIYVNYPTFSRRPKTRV
Sequence of CD33SP-OKT3scFv-CD28TC (鼠抗人CD3抗体 OKT3单链抗体, shown on CHO cells) (scFv, as listed by the source): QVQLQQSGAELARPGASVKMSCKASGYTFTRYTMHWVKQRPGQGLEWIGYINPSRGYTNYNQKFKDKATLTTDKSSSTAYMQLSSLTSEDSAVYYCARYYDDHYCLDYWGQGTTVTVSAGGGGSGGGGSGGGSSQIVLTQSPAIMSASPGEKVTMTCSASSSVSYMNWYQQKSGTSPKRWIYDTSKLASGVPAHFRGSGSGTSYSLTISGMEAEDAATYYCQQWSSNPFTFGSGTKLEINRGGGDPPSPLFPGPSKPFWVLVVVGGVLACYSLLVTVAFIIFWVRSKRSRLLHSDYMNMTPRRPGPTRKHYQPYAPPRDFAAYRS

- 阳性率 (percent positive cells) [1]: 42.6%
Molecule: Biotin-Protein L (金斯瑞生物科技, 货号 M00097)

- 细胞阳性率 (percent positive cells) [2]: 12.7%
Molecule: anti-CD226 PE (R&D Systems, Inc. #FAB666P) (antibody)

- 阳性率 (percent positive cells) [3]: 93.2%
B1: TIGIT-Fc蛋白 (Fc fusion, UniProt Q495A1 22-141, looked up, not shown: a dimerising Fc or GST)
chain: MMTGTIETTGNISAEKGGSIILQCHLSSTTAQVTQVNWEQQDQLLAICNADLGWHISPSFKDRVAPGPGLGLTLQSLTVNDTGEYFCIYHTYPDGTYTGRIFLEVLESSVAEHGARFQIP
